Results on five molecules are retold here after US20240141048A1 (DYNAMICURE BIOTECHNOLOGY, published 2024).

Numbering of substitutions follows the chain as printed. A value given as a limit tells only on which side of the number the result lay.

Sequences and labels used below:
T1: His-tagged human VISTA extracellular domain protein (in house) (human, UniProt Q9H7M9 33-194)
T1 construct: also called human VISTA ECD; hVISTA; not shown: His tag
T1 sequence: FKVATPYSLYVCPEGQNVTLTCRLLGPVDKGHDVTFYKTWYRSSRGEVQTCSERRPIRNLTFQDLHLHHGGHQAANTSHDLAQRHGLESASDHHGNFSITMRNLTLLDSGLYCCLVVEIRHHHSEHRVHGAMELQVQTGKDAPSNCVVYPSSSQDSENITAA

T2: mouse VISTA full length on Jurkat cells (mouse, UniProt Q9D659 33-308)
T2 construct: whole, on cells; also called Jurkat-mVISTA
T2 sequence (looked up): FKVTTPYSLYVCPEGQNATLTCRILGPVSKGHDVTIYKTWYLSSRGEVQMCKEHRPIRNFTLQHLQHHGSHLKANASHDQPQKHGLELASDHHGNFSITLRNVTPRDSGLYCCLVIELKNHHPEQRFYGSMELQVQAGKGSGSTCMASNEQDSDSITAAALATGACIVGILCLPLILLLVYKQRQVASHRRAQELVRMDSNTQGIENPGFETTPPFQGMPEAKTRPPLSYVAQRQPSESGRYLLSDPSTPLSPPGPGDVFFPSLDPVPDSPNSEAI

T3: His-tagged mouse VISTA extracellular domain protein (in house) (mouse, UniProt Q9D659 33-191)
T3 construct: extracellular domain; also called mouse VISTA ECD; mVISTA; not shown: His tag
T3 sequence (looked up): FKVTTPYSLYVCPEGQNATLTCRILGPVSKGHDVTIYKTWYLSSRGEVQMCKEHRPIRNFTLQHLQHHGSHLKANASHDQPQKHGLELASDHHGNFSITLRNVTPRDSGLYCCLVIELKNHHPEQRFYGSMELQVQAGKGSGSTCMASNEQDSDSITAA

T4: human VISTA full length on Jurkat cells (human, UniProt Q9H7M9 33-311)
T4 construct: also called Jurkat-hVISTA
T4 sequence: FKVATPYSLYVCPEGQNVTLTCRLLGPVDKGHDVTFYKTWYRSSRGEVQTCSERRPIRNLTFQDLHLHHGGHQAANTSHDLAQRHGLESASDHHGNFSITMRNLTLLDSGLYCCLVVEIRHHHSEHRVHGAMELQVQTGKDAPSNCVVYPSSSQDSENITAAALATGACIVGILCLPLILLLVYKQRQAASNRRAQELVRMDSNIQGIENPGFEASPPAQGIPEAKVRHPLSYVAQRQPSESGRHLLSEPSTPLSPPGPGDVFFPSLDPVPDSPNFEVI

B1: anti-VISTA antibody 17E9 (antibody, IgG1, V domains shown)
VH: QVQLQQSGAELMKPGASVKISCTATGYTFSSCWIEWVKQRPGHGLEWLGEILPGSDYTNYNEKFKDKATFTADTSSDTAYMQLSSLTSEDSAVYYCARRPPGWYFDVWGAGTAVTVSS
VL: DIVMTQSHKFMSTSVGDRVSITCKASQDVSTDIAWYQQKPGQSPKLLIYSASYRFTGVPDRFTGSGSGTDFTFTISSVQAEDLAVYYCQHQYSTPWTFGGGTKLDIK
notes: Mouse monoclonal; Tested as hybridoma supernatant and as recombinant mIgG1
B2: anti-VISTA antibody 16A1 (antibody, IgG1, V domains shown)
VH: QVQLQQSGAELMKPGASVKISCKATGYTFSSSWIEWVKQRPGHGLEWIGEIFPGSGSLNFNEKFKGKATFTADTSSNTAYLQLSSLTSDDSAVYYCARRPPGWFFDVWGAGTTVTVSS
VL: B1 VL with S30T, I33V, F55Y, A84T, H90Q, Q91H, T94S, D105E
notes: as for B1
B3: anti-VISTA antibody 20E4 (antibody, IgG1, V domains shown)
VH: B2 VH with I34V, K38R, L58T, N59H, F60Y
VL: B1 VL with I33V, F55Y, H90Q, Q91H, D105E
notes: as for B1
B4: anti-VISTA antibody 15D11 (antibody, V domains shown)
VH: EVQLQQSGSELVKAGASVKLSCTASGFKIKDTFIHWVKQRPEQGLDWIGRIDPANGNSKYDPKFQGKATITADTSSNTAYLQLSSLTSEDTAVYYCARWPSNWEAMDYWGQGTSVTVSS
VL: QIVLTQSPAIMSASPGEKVTMTCSASSSVSYMYWYQQKPGSSPRLLIYDTSNLASGVPFRFSGSGSGTSYSLTISRMEAEDAATYYCQQWISYPLTFGTGTKLELK
notes: Mouse monoclonal from hybridoma
B5: anti-VISTA antibody 9F9 (antibody, V domains shown)
VH: QVQFQQSGAELARPGASVKLSCKASGYTFTGYWMQWVKQRPGQGLEWIGAIYPGDGDTRYSQKFKGKVTLTADKSSSTAYMQLSSLASEDSAVYYCARRDYGAWFAYWGQGTLVTVSA
VL: DIKVTQSPSSMYASLGERVTITCKASQDINSYLSWFQQKPGKSPKTLIYRANRLVDGVPSRFSGSGSGQDYSLTISSLDYEDMGIYYCLQYDEFPYTFGGGTKLEIK
notes: Mouse monoclonal

In the first experiment the target is T1, His-tagged human VISTA extracellular …. The experiment in a line: ELISA, hybridoma supernatant on coated human VISTA ECD (2 µg/ml). As to the method:
(§1) 50 μl of hybridoma supernatant was incubated with human VISTA ECD (2 μg/ml), mouse VISTA ECD (2 μg/mL), cynomolgus VISTA (2 μg/mL), or negative mouse IgG1 control coated on 96 well ELISA plates. Mouse anti-VISTA antibodies were detected by anti-mouse IgG-HRP (Jackson ImmunoResearch, Cat. # 615035214).
As for B1, the binding result is given as “binds”.
Consider B2, for which the binding result is reported as “binds”.
For B3, the binding result is recorded as “binds”.
The same measure, in the same setting: the value for B4 was “binds”; that for B5 was “binds”.

The next experiment has as its target T2, mouse VISTA full length on Jurkat cells. The experiment in a line: flow cytometry, hybridoma supernatant on Jurkat cells expressing mouse VISTA. As to the method:
(§2) Human and mouse VISTA expressing Jurkat cells were cultured in RPMI1640 with 10% FBS. Cells were seeded into a 96 well plate at 1×10⁵ cells/well. Then the cells were incubated with anti-VISTA hybridoma supernatants for 30 minutes at 4° C. […] After washing with FACS buffer, the cells were incubated with Alexa Fluor 647 conjugated anti-mouse IgG(H+L)(1 μg/ml) (Jackson ImmunoResearch, Cat. #61505214) for 30 minutes at 4° C. After washing with FACS buffer twice, the samples were run in a NovoCyte Flow Cytometer (Agilent). Data was analyzed using the NovoExpress Software.
For orientation: A flow cytometer gives signals particle by particle.
As for B1, the binding result is on record as “binds”.
As for B3, the binding result is “binds”.
For B5, the binding result is recorded as “binds”.

A further experiment concerns the target T3, His-tagged mouse VISTA extracellular …. Put plainly: ELISA, hybridoma supernatant on coated mouse VISTA ECD (2 µg/mL). As to the method: as §1
For the molecule B1, the binding result was “binds”.
On the same count and under the same terms, to B3 belongs “binds”.
Regarding B4, the binding result is given as “binds”.
For B5, the binding result is recorded as “binds”.

Another experiment concerns the target T4, human VISTA full length on Jurkat cells. Put plainly: flow cytometry, hybridoma supernatant on Jurkat cells expressing human VISTA. The procedure:
as §2
For the molecule B1, the binding result is “binds”.
For the molecule B2, the binding result was “binds”.
Regarding B3, the binding result is “binds”.
Regarding B5, the binding result is given as “binds”.

Another experiment concerns the target human VISTA extracellular transmembrane-CD3zeta chimera on Jurkat-nfkb-GFP reporter cells (human, UniProt P20963 52-164). The experiment in a line: cell-based or functional assay.
On to B4, for which the “percentage of activated Jurkat-NFKb-GFP/hVISTA-hCD3z cells in the presence of OKT3 (3 ng/ml)” value was at most 60%.
In the case of B5, the “percentage of activated Jurkat-NFKb-GFP/hVISTA-hCD3z cells in the presence of OKT3 (3 ng/ml)” value is over 60%.
